Assay results as given in patent publication US6730503B1 (Roche Vitamins Inc., priority 1996, dated 2004).

How the values were obtained:
[1] = Substrate specificity of purified enzymes, PMS-DCIP spectrophotometric assay; type: biochemical; conditions: A′ corrected 1.5-fold (purity about 65%)
Method: The enzymatic activity of the AADHs herein can be determined by methods known in the art, such as by photometric analysis using a spectrophotometer. In accordance with the present invention, one unit of enzyme activity was defined as the amount of enzyme which catalyzed the reduction of 1 μmole of DCIP per minute. The extinction coefficient of DCIP at pH 8.0 was taken as 15 mM^−1. In a preferred standard assay for determining the enzyme activity of the AADHs herein, a first cuvette includes a standard reaction mixture (1.0 ml) containing 0.1 mM DCIP, 1 mM PMS, 2 to 125 mM substrate, 50 mM Tris-malate-NaOH buffer (pH 8.0), and 10 μl of the enzyme solution. A second cuvette, i.e., a reference cuvette, contains all the above components except the substrate. The reference cuvette is used to standardize the background absorbance resulting from a substrate-independent (endogenous) reaction. Preferably, a double beam spectrophotometer is used to determine the activity of the enzyme in the presence of a substrate with respect to a standard reaction mixture in the absence of the substrate.
Enzyme activities of each clone (cell free extract, soluble fraction and membrane fraction) were measured by photometric analysis. The cells of each clone were inoculated in 5 ml of MB medium in a test tube and cultivated at 30° C. for 24 hours. The resulting broth was transferred into 200 ml of fresh MB medium in 500 ml flask and the flask was shaken on the rotary flask shaker at 30° C. for 24 hours. The cells were collected by centrifugation at 6,000×g for 10 minutes and washed with 40 ml of cold buffer consisting of 50 mM Tris-HCl, pH 7.5, 5 mM MgCl2 and 0.5 mM phenylmethylsulfonyl fluoride and suspended with the same buffer to prepare cell suspension of 1 g wet cells per 5 ml. The cell suspension was subjected twice to a French press cell disruptor (1,500 kg/cm^2) and the resulting homogenate was centrifuged at 6,000×g for 10 minutes to remove cell debris. Thus obtained cell free extract (CFE) was centrifuged at 100,000×g for 60 minutes. The resulting supernatant and pellet were collected as the cytosol fraction and the membrane fraction, respectively and subjected to PMS-DCIP assay as follows. The enzyme reaction mixture (1.0 ml) contained 100 μM DCIP, 1 mM PMS, 50 mM Tris malate-NaOH buffer, pH 8.0, a substrate and the enzyme (10 μl). Substrate-dependent decreasing rate of absorbance of DCIP at 600 nm was measured at 25° C. by using a Kontron spectrophotometer UVIKON 810. […] In the A-group, there were three types, A, A′ and A″ each of which was distinguished from each other by their physical map of the DNA carried on each plasmid. B- or C-group each consisted of only one type of protein derived from one region of the chromosomal DNA.

[2] = pH stability, 3 hours at 25° C., residual activity by PMS-DCIP assay; type: physicochemical; conditions: relative to no incubation at pH 8.0
Method: Enzymes A, A′, A″ and B were incubated in buffers of various pH-values for 3 hours at 25° C. and the residual activities were assayed and expressed as relative values against that obtained by no incubation at pH 8.
Table 3 indicates the results of pH-stabilities of the enzymes. The enzyme (about 0.01 mg/ml) was incubated with 50 mM buffer containing 5% sucrose, 0.2 M NaCl, and 5 mM CaCl2 at 25° C. for 3 hours and assayed by PMS-DCIP spectrophotometric method. The buffers were Na-acetate, pH4 and 5, Tris-malate-NaOH, pH 6, 7 and 8, glycine-NaOH, pH 9 and 10. The values in the table are expressed as relative activity against that obtained by no incubation at pH 8.0.

[3] = Thermal stability, 5 minutes, residual activity by PMS-DCIP assay; type: physicochemical
Method: Table 4 indicates the results of thermal-stabilities of the enzymes. The enzyme (about 0.05 mg/ml) in 25 mM HEPES buffer, pH 7.5, containing 5% sucrose, 0.2 M NaCl, and 5 mM CaCl2 was incubated at temperature indicated in the table (4-60° C.) for 5 minutes, cooled in ice bath and assayed by PMS-DCIP spectrophotometric method. Remaining activity was expressed as relative activity against that obtained by 4° C. incubation.

[4] = Oxidation product of AADH clones by resting cell reaction followed by TLC analysis; type: cell-based, P. putida
Source text: Enzyme A gene was originally cloned as a cosmid clone of p24D4 which has about 25 kb insert in EcoRI site of pVK100. Then, it was further subcloned to use as an Enzyme A gene cassette. The 2.7 kb EcoRV fragment which includes ORF of Enzyme A gene with about 500 bp of non-coding regions at the both ends was excised from 3.4 kb NruI fragment, which was isolated from p24D4 in M13 mp18, and was ligated to HindIII site of pUC18 with HindIII linker ([…]). The resulting plasmid was designated pSSA202. Enzyme A gene cassette (2.7 kb HindIII fragment) was then inserted at HindIII site of pVK102 to produce pSSA102R. The plasmid pSSA102R was introduced into nalidixic acid resistant P. putida [ATCC 21812] by a conjugal mating method as described in Example 1-(1). The transconjugant of P. putida carrying pSSA102R was selected on MB agar medium containing 50 μg/ml nalidixic acid and 10 μg/ml tetracycline (MNT agar medium) and subjected to a mini-resting cell reaction. […] The reaction mixture was assayed with TLC and 2KGA was identified as the product, while no 2KGA was observed by the same resting cell reaction with the host, nalidixic acid resistant P. putida [ATCC 21812].

[5] = Products of enzyme reactions with purified enzymes, identified by TLC and/or HPLC; type: biochemical
Method: Products formed from a substrate in the reaction with Enzyme A, Enzyme A′, Enzyme A″ or Enzyme B were analyzed by thin layer chromatography (TLC) and/or high performance liquid chromatography (HPLC) with authentic compounds. […] Similarly to the reactivity for L-sorbosone, D-glucosone can be converted to 2KD by all of above mentioned AADHs. A group enzymes can produce 2KD from D-fructose whose possible direct product is D-glucosone. […]
Enzyme reactions with purified Enzyme A or Enzyme B and various substrates were performed as described in Example 11.

B1: Enzyme A″: recombinant AADH of G. oxydans DSM No. 4025, amino acid sequence SEQ ID NO 7, plasmid p26C3 (protein)
chain: MKLTTLLQSSAALLVLGTIPALAQTAITDEMLANPPAGEWINYGQNQENYRHSPLTQITADNVGQLQLVWARGMEAGKIQVTPLVHDGVMYLANPGDVIQAIDAATGDLIWEHRRQLPNIATLNSFGEPTRGMALYGTNVYFVSWDNHLVALDTSTGQVVFDVDRGQGTDMVSNSSGPIVANGVIVAGSTCQYSPFGCFVSGHDSATGEELWRNTFIPRAGEEGDETWGNDYEARWMTGVWGQITYDPVGGLVHYGTSAVGPAAEIQRGTVGGSMYGTNTRFAVRPETGEIVWRHQTLPRDNWDQECTFEMMVVNVDVQPSAEMEGLHAINPDAATGERRVVTGVPCKNGTMWQFDAETGEFLWARDTSYQNLIESVDPDGLVHVNEDLVVTELEVAYEICPTFLGGRDWPSAALNPDTGIYFIPLNNACSGMTAVDQEFSSLDVYNVSLDYKLSPGSENMGRIDAIDISTGRTLWSAERYASNYAPVLSTGGGVLFNGGTDRYFRALSQETGETLWQTRLATVASGQAISYEIDGVQYVAIGRGGTSYGSNHNRALTERIDSTAIGSAIYVFALPQQ
modifications: Gluconobacter oxydans; SIGNAL (1)..(23)
- Substrate specificity ([1]; 2 mM L-Sorbosone): 26.5 units/mg of purified protein
- Substrate specificity ([1]; 50 mM D-Glucose): 17.8 units/mg of purified protein
- Substrate specificity ([1]; 50 mM D-Mannitol): 6.2 units/mg of purified protein
- Substrate specificity ([1]; 50 mM Isopropanol): 154.9 units/mg of purified protein
- Substrate specificity ([1]; 50 mM n-Propanol): 262.3 units/mg of purified protein
- Substrate specificity ([1]; 125 mM D-Fructose): 17.3 units/mg of purified protein
- Substrate specificity ([1]; 125 mM D-Sorbitol): 30.1 units/mg of purified protein
- Substrate specificity ([1]; 125 mM L-Sorbose): 30.3 units/mg of purified protein
- Relative activity (pH stability) ([2]; incubated at pH 4.0, 3 hours): 6.2%
- Relative activity (pH stability) ([2]; incubated at pH 5.0, 3 hours): 77.9%
- Relative activity (pH stability) ([2]; incubated at pH 6.0, 3 hours): 105.8%
- Relative activity (pH stability) ([2]; incubated at pH 7.0, 3 hours): 100.9%
- Relative activity (pH stability) ([2]; incubated at pH 8.0, 3 hours): 99.0%
- Relative activity (pH stability) ([2]; incubated at pH 9.0, 3 hours): 100.9%
- Relative activity (pH stability) ([2]; incubated at pH 10.0, 3 hours): 104.0%
- Relative activity (pH stability) ([2]; incubated at pH 11.0, 3 hours): 79.2%
- Relative activity (thermal stability) ([3]; 4° C. for 5 minutes (reference)): 100.0%
- Relative activity (thermal stability) ([3]; 20° C. for 5 minutes, relative to 4° C. incubation): 96.0%
- Relative activity (thermal stability) ([3]; 30° C. for 5 minutes, relative to 4° C. incubation): 86.1%
- Relative activity (thermal stability) ([3]; 40° C. for 5 minutes, relative to 4° C. incubation): 72.8%
- Relative activity (thermal stability) ([3]; 50° C. for 5 minutes, relative to 4° C. incubation): 26.6%
- Relative activity (thermal stability) ([3]; 60° C. for 5 minutes, relative to 4° C. incubation): 13.3%
- Oxidation product of D-sorbitol [4]: mainly D-glucose
- Oxidation product of L-sorbose [4]: *1Oxidation product of L-sorbose by Enzymes A, A′, A″, and [A and B] was 2KGA.
- Oxidation product of L-sorbosone [4]: *4Oxidation product of L-sorbosone by Enzymes A, A′, A″, B, and [A and B] was 2KGA.
- Product ([5]; substrate D-Fructose): 2-keto-D-gluconic acid
- Product ([5]; substrate D-Mannitol): D-mannose
- Product ([5]; substrate D-Sorbitol): D-glucose with L-gulose
- Product ([5]; substrate L-Sorbose): L-sorbosone with 2KGA
- Product ([5]; substrate L-Sorbosone): 2KGA
